Laboratory results reported in US20210147549A1.

Tests used:
[1] = molecular target: human recombinant CD64 (Fc gamma receptor I) (human) (UniProt P12314); assay: SPR (Biacore T200), construct captured on Protein A, soluble CD64 as analyte
[2] = molecular target: FcγRIIIa V158 on cells (TR-FRET assay) (UniProt P08637); assay: TR-FRET competition (CisBio) on cells bearing labeled receptor, vs labeled competitor antibody
[3] = molecular target: FcγRIIa H131 (CD32a) on cells (human) (UniProt P12318); assay: as above
[4] = molecular target: FcγRIIb on cells (TR-FRET assay) (UniProt P31994); assay: as above
[5] = molecular target: FcγRIIIa on effector cells (Jurkat/FcγRIIIa cells, NK cells) (UniProt P08637); assay: cell-based or functional assay
Sequence of FcγRIIIa on effector cells (Jurkat/FcγRIIIa cells, NK cells) (P08637 17-254): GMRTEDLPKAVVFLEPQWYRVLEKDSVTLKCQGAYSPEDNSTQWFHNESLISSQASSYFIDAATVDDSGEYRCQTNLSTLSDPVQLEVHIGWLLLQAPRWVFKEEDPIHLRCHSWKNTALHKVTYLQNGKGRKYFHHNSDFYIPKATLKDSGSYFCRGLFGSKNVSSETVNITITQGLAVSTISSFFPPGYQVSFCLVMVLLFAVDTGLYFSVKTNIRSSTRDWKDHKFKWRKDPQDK

Sequence of human recombinant CD64 (Fc gamma receptor I) (human) (P12314 16-288 limits assumed): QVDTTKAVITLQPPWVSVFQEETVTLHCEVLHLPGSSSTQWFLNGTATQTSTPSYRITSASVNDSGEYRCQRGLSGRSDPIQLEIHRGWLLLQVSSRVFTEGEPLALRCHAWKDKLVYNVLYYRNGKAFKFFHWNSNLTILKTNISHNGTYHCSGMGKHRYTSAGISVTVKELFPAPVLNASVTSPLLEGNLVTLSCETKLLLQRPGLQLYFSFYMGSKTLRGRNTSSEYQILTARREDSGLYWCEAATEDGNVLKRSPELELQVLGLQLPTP
Sequence of FcγRIIa H131 (CD32a) on cells (human) (P12318 34-317): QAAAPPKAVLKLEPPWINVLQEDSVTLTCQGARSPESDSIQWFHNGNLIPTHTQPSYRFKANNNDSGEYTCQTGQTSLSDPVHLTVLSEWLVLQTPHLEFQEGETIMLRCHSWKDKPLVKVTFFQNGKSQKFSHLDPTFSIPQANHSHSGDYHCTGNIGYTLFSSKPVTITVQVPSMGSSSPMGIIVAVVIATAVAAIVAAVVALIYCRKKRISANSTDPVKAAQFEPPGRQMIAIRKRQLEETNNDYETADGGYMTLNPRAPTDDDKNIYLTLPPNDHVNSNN
Sequence of FcγRIIb on cells (TR-FRET assay) (P31994 43-310 limits assumed): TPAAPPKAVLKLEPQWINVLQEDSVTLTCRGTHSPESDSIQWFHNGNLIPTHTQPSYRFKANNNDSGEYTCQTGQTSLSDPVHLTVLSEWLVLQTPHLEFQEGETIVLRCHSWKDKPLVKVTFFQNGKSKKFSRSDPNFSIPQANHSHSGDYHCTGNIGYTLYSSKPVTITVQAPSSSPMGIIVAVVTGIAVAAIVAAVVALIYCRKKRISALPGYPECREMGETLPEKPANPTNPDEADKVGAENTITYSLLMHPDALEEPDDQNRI
Sequence of FcγRIIIa V158 on cells (TR-FRET assay) (P08637 17-254 F176V limits assumed): as the sequence (P08637 17-254) above, with F160V counted along it

Row | CD64 Valency by SPR [1] | IC50 [2] [nM] | IC50 [3] [nM] | IC50 [4] [nM] | EC50 (nM), Mean; ADCC in KILR-A549 cells with NK cells [5] [nM] | EC50 (nM), Mean; FcyRIIIa signaling in an ADCC reporter assay [5] [nM] | Substance
1 | 1.5 | 428 | 1270 | 3290 |  |  | anti-CD20 monoclonal antibody with the CDRs of Gazyva (obinutuzumab)
2 |  |  |  |  | 0.0054 |  | avelumab anti-PD-L1 monoclonal antibody, afucosylated
3 | 1.3 |  |  |  |  | 0.049 | avelumab anti-PD-L1 monoclonal antibody, fucosylated (S1A-AA-Ave-001, generated in-house)
